This data set deals with IhfAB (integration host factor) (UniProt P0A6X7+P0A6Y1). Put plainly: DNase I footprinting. The following applies: 25 mM Tris-HCl pH 7.5, 50 mM KCl, 6.25 mM MgCl2, 10% glycerol, 1 mM DTT, 30 min room temperature; then 2.5 mM CaCl2 and 5 mM MgCl2 added for DNase I (1 min).
Sequence of UniProt P0A6X7 (P0A6X7 whole entry, chain 1 of 2): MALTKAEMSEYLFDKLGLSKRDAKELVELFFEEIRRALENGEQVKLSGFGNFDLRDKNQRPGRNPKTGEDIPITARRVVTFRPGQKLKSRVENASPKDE
Sequence of UniProt P0A6X7 (P0A6Y1 whole entry, chain 2 of 2): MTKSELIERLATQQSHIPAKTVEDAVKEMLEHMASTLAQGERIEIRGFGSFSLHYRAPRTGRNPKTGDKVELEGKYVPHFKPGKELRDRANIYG

“TCTGGTTTGGTTTTGTTTTGCGGGTTAAAAGATCGTTTAAATCAATATTTACAACATAAAAAACTAAATTTAACTTATTGCGTGAAGAGTATTTCCGGGCCGGAAGCATATATCCAGGGGCCCGACAGAAGGGGGAAACAT (double strand) [papB promoter region (141 bp PCR product)]”: the binding entry is “binds”.
